Results as given in paper PMC10658506.

Target: human gp130-Fc (UniProt P40189)
Test: flow cytometry on yeast-displayed IL-11
Conditions: 100 nM IL-11R added, read off a plot
[1] = 100 nM gp130-Fc, parent: est. 35000
[2] = 1000 nM gp130-Fc, parent: est. 40000

Sequence of human gp130-Fc (P40189 whole entry, looked up, tested part not stated): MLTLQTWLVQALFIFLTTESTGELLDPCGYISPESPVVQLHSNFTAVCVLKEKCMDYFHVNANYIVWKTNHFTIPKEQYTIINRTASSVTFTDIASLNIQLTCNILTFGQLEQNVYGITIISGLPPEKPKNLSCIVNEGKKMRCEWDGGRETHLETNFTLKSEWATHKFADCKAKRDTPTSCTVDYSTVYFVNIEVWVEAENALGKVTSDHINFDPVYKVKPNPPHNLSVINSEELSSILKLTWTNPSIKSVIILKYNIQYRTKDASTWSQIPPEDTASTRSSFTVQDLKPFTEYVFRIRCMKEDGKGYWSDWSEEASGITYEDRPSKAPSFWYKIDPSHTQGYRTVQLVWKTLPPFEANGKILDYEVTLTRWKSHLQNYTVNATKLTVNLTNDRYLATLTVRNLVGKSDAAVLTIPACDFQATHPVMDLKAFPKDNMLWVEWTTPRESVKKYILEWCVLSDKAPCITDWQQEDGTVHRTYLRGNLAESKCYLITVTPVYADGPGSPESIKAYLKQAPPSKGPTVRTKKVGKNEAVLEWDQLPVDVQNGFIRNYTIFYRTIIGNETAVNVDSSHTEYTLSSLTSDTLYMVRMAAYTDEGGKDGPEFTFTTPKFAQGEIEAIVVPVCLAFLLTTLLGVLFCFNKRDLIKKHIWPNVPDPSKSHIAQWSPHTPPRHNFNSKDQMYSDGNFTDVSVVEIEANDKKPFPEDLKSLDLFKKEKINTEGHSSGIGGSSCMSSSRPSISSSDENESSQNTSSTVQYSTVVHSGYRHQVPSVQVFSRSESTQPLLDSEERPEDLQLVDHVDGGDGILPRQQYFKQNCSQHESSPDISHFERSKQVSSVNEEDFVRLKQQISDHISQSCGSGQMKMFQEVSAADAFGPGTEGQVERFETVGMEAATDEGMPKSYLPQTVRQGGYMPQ

yeast-displayed IL-11 GIPR precomplexed with soluble human IL-11R (from UniProt Q14626) L24R; W147A
response (Normalized Fluorescence) [1]: 1900 | response (Normalized Fluorescence) [2]: 4500

yeast-displayed IL-11 GIPR precomplexed with soluble human IL-11R (from UniProt Q14626) W147A
response (Normalized Fluorescence) (10 nM gp130-Fc, parent: est. 28000): 4900 | response (Normalized Fluorescence) [1]: 17000 | response (Normalized Fluorescence) [2]: 26000
